Assay results from patent US20260028422A1 (CONCEPT TO MEDICINE BIOTECH, published 2026).
Substitutions are numbered along the chain they refer to. Read-outs that look alike come from different tables or passages of the source.

T1: human MerTK-his protein (human, UniProt Q12866 21-505)
T1 construct: extracellular domain; also called hMerTK-His; human MerTK protein
T1 sequence (looked up): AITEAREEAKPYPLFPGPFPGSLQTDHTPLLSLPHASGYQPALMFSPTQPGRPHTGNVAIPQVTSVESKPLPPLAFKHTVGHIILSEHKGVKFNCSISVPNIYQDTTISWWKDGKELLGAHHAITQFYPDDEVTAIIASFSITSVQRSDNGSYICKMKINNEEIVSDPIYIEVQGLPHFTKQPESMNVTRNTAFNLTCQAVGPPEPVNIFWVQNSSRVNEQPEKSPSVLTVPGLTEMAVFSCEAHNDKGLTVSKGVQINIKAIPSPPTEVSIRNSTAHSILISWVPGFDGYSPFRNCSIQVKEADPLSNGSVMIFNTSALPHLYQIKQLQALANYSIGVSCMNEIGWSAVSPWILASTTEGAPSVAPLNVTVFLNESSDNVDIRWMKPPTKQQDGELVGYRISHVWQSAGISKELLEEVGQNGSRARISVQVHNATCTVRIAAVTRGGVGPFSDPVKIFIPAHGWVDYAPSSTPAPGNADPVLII

T2: human MerTK expressed on cells (human, UniProt Q12866 21-999)
T2 construct: whole, on cells; also called CHO-K1-hMerTK; CHO-K1-MerTK
T2 sequence (looked up): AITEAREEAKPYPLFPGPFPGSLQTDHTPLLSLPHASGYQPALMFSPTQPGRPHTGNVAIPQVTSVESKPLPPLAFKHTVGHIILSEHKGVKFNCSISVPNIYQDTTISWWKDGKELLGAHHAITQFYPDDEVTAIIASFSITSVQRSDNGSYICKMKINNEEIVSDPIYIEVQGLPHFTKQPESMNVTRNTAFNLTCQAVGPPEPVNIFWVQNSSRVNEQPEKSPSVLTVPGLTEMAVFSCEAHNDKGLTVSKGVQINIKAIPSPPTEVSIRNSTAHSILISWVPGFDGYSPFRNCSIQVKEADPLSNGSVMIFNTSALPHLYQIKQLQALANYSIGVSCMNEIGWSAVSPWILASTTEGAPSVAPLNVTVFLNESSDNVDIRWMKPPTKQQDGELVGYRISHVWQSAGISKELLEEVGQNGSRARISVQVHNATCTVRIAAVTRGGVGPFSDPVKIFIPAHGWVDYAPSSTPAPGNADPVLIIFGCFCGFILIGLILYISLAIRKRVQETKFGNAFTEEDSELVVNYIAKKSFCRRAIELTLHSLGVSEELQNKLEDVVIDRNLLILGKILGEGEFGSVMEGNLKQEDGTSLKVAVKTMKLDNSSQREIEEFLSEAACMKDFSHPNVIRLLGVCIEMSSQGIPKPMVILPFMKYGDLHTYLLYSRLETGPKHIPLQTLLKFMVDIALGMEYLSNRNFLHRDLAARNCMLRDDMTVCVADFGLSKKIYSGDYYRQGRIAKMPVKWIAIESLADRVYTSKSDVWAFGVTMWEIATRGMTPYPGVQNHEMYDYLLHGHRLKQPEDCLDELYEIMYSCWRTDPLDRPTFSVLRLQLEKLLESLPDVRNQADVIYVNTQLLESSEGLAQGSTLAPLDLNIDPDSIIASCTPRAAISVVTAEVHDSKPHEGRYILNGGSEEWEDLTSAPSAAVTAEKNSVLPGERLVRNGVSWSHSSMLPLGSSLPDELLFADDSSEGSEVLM

B1: 265F11B5Hu-6 (antibody, V domains shown)
VH: QVQLVQSGAEVKKPGASVKVSCKASGYTFTTYDINWVRQAPGQGLEWMGWIYPRDGYTKYNEKFKGRVTMTTDTSTSTAYMELRSLRSDDTAVYYCTRGYYDNLYYFDYWGQGTTVTVSS
VL: EIVLTQSPDFQSVTPKEKVTITCSASSIISSNYFHWYQQKPDQSPKLLIKRTSNLASGVPSRFSGSGSGTDYTLTINSLEAEDAATYYCQQGRSVPLTFGQGTKLEIK
B2: 265F11B5Hu-5 (antibody, V domains shown)
VH: B1 VH with T97A
VL: B1 VL
B3: 265F11B5Hu-7 (antibody, V domains shown)
VH: B1 VH with M48I, V68A, Y95F
VL: B1 VL
B4: 265F11B5Hu-4 (antibody, V domains shown)
VH: B1 VH with M48I, V68A, M70L, T71A, T72V, Y95F
VL: B1 VL with Y72F
B5: 265F11B5Hu-1 (antibody, V domains shown)
VH: B1 VH with T97A
VL: B1 VL with Y72F
B6: 265F11B5Hu-11 (antibody, V domains shown)
VH: B1 VH with M48I, V68A, Y95F
VL: B1 VL with K50Y
B7: 265F11B5Hu-8 (antibody, V domains shown)
VH: B1 VH with M48I, V68A, M70L, T71A, T72V, Y95F
VL: B1 VL
B8: 265F11B5Hu-3 (antibody, V domains shown)
VH: B1 VH with M48I, V68A, Y95F
VL: B1 VL with Y72F
B9: 265F11B5Hu-10 (antibody, V domains shown)
VH: B1 VH
VL: B1 VL with K50Y

Tests used:
[1] = molecular target: T1, human MerTK-his protein; experiment: ELISA, plate coated with human MerTK-his, OD 450nm
Protocol: (§1) To evaluate the binding activity, the chimeric mAbs were subjected to ELISA test. Briefly, 96-well plates were coated with human or cyno MerTK-his protein at 2 μg/mL in PBS, 100 μL/well at 4° C. overnight, then blocked with 150 μL/well of 1% BSA. Five-fold dilutions of MerTK antibodies starting from 20 nM were added to each well and incubated for 1 hour at room temperature. The plates were washed with PBS/Tween-20 and then incubated with goat anti-human IgG Fe antibody conjugated with Horse Radish Peroxidase (HRP) for 30 minutes (mins) at room temperature. After washing, the plates were developed with TMB substrate and subsequent stop solution was added to complete the reaction. The signal from each well was read by spectrophotometer at OD 450 nm.
(§2) To evaluate the antigen binding activity, the humanized antibodies were subjected to ELISA test as described before.

[2] = molecular target: T1, human MerTK-his protein; experiment: SPR Biacore 8K, antibody captured on Protein A chip, 50 nM antigen
Protocol: To explore whether the humanized antibodies could maintain their binding kinetics, affinity ranking were performed with Biacore™. The antibodies were captured with a Protein A chips. Human MerTK-his protein at 50 nM was injected over captured antibodies for 180 s at a flow rate of 30 μL/min. The antigen was allowed to dissociate for 600 s. The experiment was carried out on a Biacore™ 8K. Data analysis was carried out using Biacore™ 8K evaluation software.

[3] = molecular target: T2, human MerTK expressed on cells; experiment: FACS on CHO-K1 cells overexpressing human MerTK, MFI (AF488)
[4] = molecular target: T1, human MerTK-his protein; experiment: ELISA, plate coated with human MerTK-his, OD 450nm; remark: listed apart in the source
Protocol: as §1, §2

[5] = molecular target: T2, human MerTK expressed on cells; experiment: FACS on CHO-K1 cells overexpressing human MerTK, MFI (AF488); remark: listed apart in the source

Row | Binder | EC50 [1] | Kd [2] | koff [2] | kon [2] | EC50 [3] | EC50 [4] | EC50 [5]
1 | B1 | 0.044 nM | 1.4 nM | 0.000278 s⁻¹ | 199000 M⁻¹ s⁻¹ | 0.17 nM | – | –
2 | B2 | 0.062 nM | 1.16 nM | 0.000232 s⁻¹ | 200000 M⁻¹ s⁻¹ | 0.17 nM | – | –
3 | B3 | 0.021 nM | 0.719 nM | 0.000155 s⁻¹ | 216000 M⁻¹ s⁻¹ | 0.14 nM | – | –
4 | B4 | 0.068 nM | 0.856 nM | 0.000172 s⁻¹ | 201000 M⁻¹ s⁻¹ | 0.13 nM | – | –
5 | B5 | 0.042 nM | 1.15 nM | 0.000232 s⁻¹ | 201000 M⁻¹ s⁻¹ | 0.16 nM | – | –
6 | B6 | – | 1.94 nM | 0.000378 s⁻¹ | 195000 M⁻¹ s⁻¹ | – | 0.042 nM | 0.22 nM
7 | B7 | 0.037 nM | 0.174 nM | 3.95e-05 s⁻¹ | 227000 M⁻¹ s⁻¹ | 0.14 nM | – | –
8 | B8 | 0.06 nM | 1.02 nM | 0.000204 s⁻¹ | 199000 M⁻¹ s⁻¹ | 0.22 nM | – | –
9 | B9 | 0.045 nM | 2.52 nM | 0.000463 s⁻¹ | 184000 M⁻¹ s⁻¹ | 0.19 nM | – | –
